Measured values taken from patent US20250296982A1.

Columns and labels:
[1] = biological target: TRIM21-GST (Antibodies Online catalogue #ABIN1323621) (UniProt P19474); test: ELISA: antibody coated at 25 µg/mL, TRIM21-GST titrated, EC50 = midpoint of the 4PL fit
[2] = biological target: recombinant human FcRn (human α-FcRn with a 6× histidine tag on the C-terminus, co-expressed with human β2M) (human) (UniProt P55899); test: biolayer interferometry (Octet): antibody on anti-CH1 biosensor, recombinant FcRn in solution, pH 6.0; fold change against IgG with WT Fc
[3] = biological target: FcγRIIIa (UniProt P08637); test: plate binding assay, O.D. 650 against antibody concentration (format not described in Example 4)
[4] = biological target: TRIM21-GST (Antibodies Online catalogue #ABIN1323621) (UniProt P19474); test: ELISA, antibody coated, TRIM21-GST titrated; reference WT
[5] = biological target: recombinant human FcRn (human α-FcRn with a 6× histidine tag on the C-terminus, co-expressed with human β2M) (human) (UniProt P55899); test: biolayer interferometry (Octet): antibody on anti-CH1 biosensor, recombinant FcRn in solution, pH 6.0; reference of the fold changes
[6] = biological target: FcγRIIIa (UniProt P08637)
[7] = biological target: C1q of the low toxicity guinea pig complement used in the CDC assay (Cedarlane Laboratories Product #CL4051) (guinea pig)
[8] = biological target: recombinant human FcRn (human α-FcRn with a 6× histidine tag on the C-terminus, co-expressed with human β2M) (human) (UniProt P55899); test: biolayer interferometry (Octet): antibody on anti-CH1 tip, FcRn in solution, pH 6.0
[9] = biological target: full-length, membrane-bound FcRn heterodimer (FcRn alpha and β2m) on transiently transfected Expi293 cells (UniProt P55899); test: cell-based competition at pH 6.0, flow cytometry: FcRn-expressing cells, dilutions of IgG against a fixed concentration of labelled Fc competitor Fc-A488
[10] = biological target: FcγRIIIa (UniProt P08637); test: ELISA: FcγRIIIA coated, antibody titrated

Row | EC50 [1] | kd (fold decrease*) [2] | koff (fold decrease*) [2] | kon (fold increase*) [2] | TRIM21 binding EC50, fold of WT EC50 [4] | EC50 (ADCC reporter bioassay, CD20+ WIL2-S target cells) [6] | Substance | EC50 (CDC, CD20+ Raji cells with guinea pig complement) [7] | further results
1 | 14500 ng/mL | 9.2 fold | 3.6 fold | 2.6 fold | – | – | LS (Xencor) (antibody) | – | –
2 | – | – | – | – | – | – | LS (antibody) | – | EC50 (read off the curve) [3]: 60 nM
3 | 7730 ng/mL | 5.9 fold | 2.6 fold | 2.3 fold | < 1.5 fold | – | Motavizumab with Fc variant FcMut045 (T256D_T307R_Q311V) (antibody) | – | –
4 | 7410 ng/mL | 11 fold | 3.2 fold | 3.2 fold | < 1.5 fold | – | Motavizumab with Fc variant FcMut183 (T256D_Q311V_A378V) (antibody) | – | –
5 | 12300 ng/mL | 9.1 fold | 3 fold | 2.9 fold | < 1.5 fold | – | Motavizumab with Fc variant FcMut197 (H285N_T307Q_N315D) (antibody) | – | –
6 | 10500 ng/mL | 13.2 fold | 3.3 fold | 3.8 fold | < 1.5 fold | – | Motavizumab with Fc variant FcMut213 (H285D_T307Q_A378V) (antibody) | – | –
7 | 7800 ng/mL | 12.4 fold | 3.7 fold | 3.4 fold | < 1.5 fold | – | Motavizumab with Fc variant FcMut215 (T307Q_Q311V_A378V) (antibody) | – | –
8 | 10400 ng/mL | 12.4 fold | 4 fold | 3.2 fold | < 1.5 fold | – | Motavizumab with Fc variant FcMut228 (T256D_N286D_T307R_Q311V_A378V) (antibody) | – | –
9 | 8500 ng/mL | – | – | – | – | – | Motavizumab with wild-type Fc (antibody) | – | kd (fold decrease*) [5]: 1 fold; koff (fold decrease*) [5]: 1 fold; kon (fold increase*) [5]: 1 fold
10 | – | – | – | – | – | 3.92 ng/mL | Rituximab with Fc variant FcMut183 (T256D_Q311V_A378V) (antibody) | 0.103 ng/mL | –
11 | – | – | – | – | – | 8.3 ng/mL | Rituximab with Fc variant FcMut197 (H285N_T307Q_N315D) (antibody) | 2.54 ng/mL | –
12 | – | – | – | – | – | 4.01 ng/mL | Rituximab with Fc variant FcMut213 (H285D_T307Q_A378V) (antibody) | 0.267 ng/mL | –
13 | – | – | – | – | – | 2.73 ng/mL | Rituximab with Fc variant FcMut215 (T307Q_Q311V_A378V) (antibody) | 0.141 ng/mL | –
14 | – | – | – | – | – | 2.66 ng/mL | Rituximab with Fc variant FcMut228 (T256D_N286D_T307R_Q311V_A378V) (antibody) | 0.22 ng/mL | –
15 | – | – | – | – | – | 3.07 ng/mL | Rituximab with Fc variant FcMut229 (T256D_H285D_T307R_Q311V_A378V) (antibody) | 0.14 ng/mL | –
16 | – | – | – | – | – | 6.14 ng/mL | WT (antibody) | 0.715 ng/mL | Kd [8]: 862 nM; EC50 (read off the curve) [3]: 40 nM; IC50 (read off the curve) [9]: 300 nM; EC50 (read off the curve) [10]: 3000 ng/mL
17 | 10100 ng/mL | 8.5 fold | 3.6 fold | 2.3 fold | – | – | YTE (Medimmune) (antibody) | – | –
18 | – | – | – | – | – | – | antibody molecule with Fc variant FcMut008 (T256D_T307R) | – | Kd [8]: 383 nM; IC50 (read off the curve) [9]: 100 nM
19 | – | – | – | – | – | – | antibody molecule with Fc variant FcMut015 (D376Q_M428L) | – | Kd [8]: 287 nM; IC50 (read off the curve) [9]: 90 nM
